Experimental data taken from patent US12503518B2, “Heparanase-neutralizing A54 monoclonal antibody” (TECHNION RESEARCH & DEVELOPMENT FOUNDATION LIMITED, priority 2020, dated 2025).

Experiments:
U87 glioma cells = assay: Matrigel invasion assay; assay type: cell-based, human; settings: antibody 2 g, 6 h, vs control mouse IgG; p=0.001; FIG. 4C
Description: Matrigel invasion assay. Invasion assay was performed using modified Boyden chambers with polycarbonate Nucleopore membrane, essentially as described (Arvatz et al. 2011, ibid.). Briefly, filters (6.5 mm in diameter, 8 μm pore-size) were coated with Matrigel (30 μl); Cells (2×10^5) in 100 μl of serum-free medium were seeded in triplicate on the upper part of each chamber in the presence of the indicated antibody, and the lower compartment was filled with 600 μl medium supplemented with 10% FCS. After incubation for 5 h at 37° C. in a 5% CO2 incubator, non-invading cells on the upper surface of the filter were wiped with a cotton swab, and migrated cells on the lower surface of the filter were fixed, stained with 0.5% crystal violet (Sigma) and counted by examination of at least seven microscopic fields (Barash et al., J Natl Cancer Inst. 110:1102-1114, 2018).
Thereafter, the antibody effect on cell invasion was examined. Briefly, U87 glioma cells (1×10^5) were plated onto Matrigel-coated 8-μm Transwell filters in the presence of control mouse IgG or mAb A54 ([…]). Invading cells adhering to the lower side of the membrane were visualized after 6 h (FIGS. 4A-B) and quantified (FIG. 4C; number of invading cells per high power field; *p=0.001) as described in ‘Methods’.

LPS-induced sepsis = LPS-induced sepsis survival; assay type: in vivo, C57BL/6 mice; settings: 500 μg/mouse 30 min before LPS (15 mg/kg, i.p.); monitored 8 days
Description: In subsequent studies, the effect of mAb A54 on LPS-induced sepsis, was investigated. C57BL/6 mice (n=8) were treated with A54 mAb (500 μg/mouse) or Roneparstat (SST) (1.2 mg/mouse) or PBS as control, 30 min before LPS injection (15 mg/kg, i.p.). SST was given once again (1.2 mg/mouse) 16 hours after LPS administration. Survival of mice was monitored every 12 h for 8 days (FIG. 10).

EMT-6 luciferase cells = assay: EMT-6 breast carcinoma tumor growth in Balb/c mice; assay type: in vivo; settings: 360 μg/mouse, 2 times/week; vs PBS
Description: In subsequent studies, the effect of mAb A54 on breast carcinoma tumor growth was investigated. Balb/c mice (n=3) were inoculated in the mammary fad pad with EMT-6 luciferase cells (0.5×10^6), and mice were treated with A54 mAb (360 μg/mouse, 2 times/week) or PBS as control. Tumor growth was evaluated by IVIS imaging (FIGS. 9A and 9B) and quantification of luciferase signals is shown graphically (FIG. 9C). At the end of the experiment, tumors were resected and weighted (FIG. 9D).

[1] = test system: Luc-CAG human myeloma cells; assay: CAG myeloma tumor growth in NOD/SCID mice, IVIS imaging; assay type: in vivo; settings: 500 μg/mouse, 3 times/week from day 3; evaluated 3 weeks later; vs PBS; P=0.02
Description: CAG myeloma. Luciferase-labeled CAG human myeloma cells (5×10^6) are injected into the tail vein of NOD/SCID mice. Three days after cell inoculation, mice are randomly assigned to 2 cohorts (5-10 mice each) receiving (a) vehicle (PBS); and (b) A54 mAb (500 μg/mouse, 3 times/week). Tumor development is inspected (once a week) by IVIS imaging following administration of luciferin (see below). At termination, mice are sacrificed the backbones are excised, fixed in formalin and following de-calcification with 10% EDTA solution are embedded in paraffin and subjected to histological and immunohistochemical analyses.
IVIS imaging. […] Imaging is performed in real time, is non-invasive and provides quantitative data. […] Light emitted from the bioluminescent cells is detected by the IVIS camera system with images quantified for tumor burden using a log-scale color range set at 5×10^4 to 1×10^7 and measurement of total photon counts per second (PPS) using Living Image software (Xenogen).
The ability of mAb A54 to attenuate myeloma tumor development over time was examined. […] Tumor growth was evaluated 3 weeks later by IVIS imaging (FIGS. 5A and 5B). Quantification of luciferase signals is also shown graphically (FIG. 5C). […]

B1: mAb A54: heparanase-neutralizing murine monoclonal antibody, IgG1-Kappa; VH SEQ ID NO: 7, VL SEQ ID NO: 8; binds HBD-II of heparanase (antibody, listed as Mus musculus, V domains shown)
VH: QVQLQQSGAELAKPGASVRMSCKASGYTFTNYWMHWVKQRPGQGLEWIGYINPTTGYTEYNQKFKDKATLTADKSSSTAYMQLSSLTSEDSAVYYCARGGAGYDYDEDYAMDYWGQGTSVTVSS
VL: DIVLTQSPASLAVSLGQRATISCRASESVEYFGTSYMNWYQQKPGQPPKLLIYLASILESGIPARFSGSGSGTDFTLNIHPVEEEDAATYYCQQSNEDPYTFGGGTKLEIK
U87 glioma cells
  attenuation of invasion of U87 glioma cells through Matrigel: ~90%
LPS-induced sepsis
  survival after LPS injection: effectively protects mice from LPS-induced sepsis
EMT-6 luciferase cells
  breast carcinoma tumor growth (IVIS signal, tumor weight): attenuates the growth of breast carcinoma
[1]
  myeloma growth rate (IVIS luciferase signal): marked reduction in the myeloma growth rate
